Results reported in article PMC8990011.

Biological target: Bax, endogenous in HeLa cells (human (endogenous in HeLa)) (UniProt Q07812)
Sequence (Q07812 whole entry): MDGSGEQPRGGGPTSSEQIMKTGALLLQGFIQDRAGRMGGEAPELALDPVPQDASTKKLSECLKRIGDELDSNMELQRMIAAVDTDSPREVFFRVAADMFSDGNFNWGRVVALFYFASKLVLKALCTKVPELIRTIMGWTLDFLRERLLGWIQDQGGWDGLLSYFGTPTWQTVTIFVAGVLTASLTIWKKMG

6xHis-Bcl-xL^K87D (from UniProt Q07817-1 1-233) (natural protein)
inhibition of cBid- and Bim-triggered Bax-pore formation in ANTS/DPX liposomes (100 nM Bax, 20 nM cBid or Bim, 8-500 nM Bcl-xL protein), IC50: 80 nM
